B1: Multivesicular body sorting factor 12 (Saccharomyces cerevisiae), P42939 (parent)
chain: MNNNVEELLRRIPLYNKYGKDFPQETVTRFQMPEFKLPALQPTRDLLCPWYEECDNITKVCQLHDSSNKKFDQWYKEQYLSKKPPGIVGNTLLSPSRKDNS
partner: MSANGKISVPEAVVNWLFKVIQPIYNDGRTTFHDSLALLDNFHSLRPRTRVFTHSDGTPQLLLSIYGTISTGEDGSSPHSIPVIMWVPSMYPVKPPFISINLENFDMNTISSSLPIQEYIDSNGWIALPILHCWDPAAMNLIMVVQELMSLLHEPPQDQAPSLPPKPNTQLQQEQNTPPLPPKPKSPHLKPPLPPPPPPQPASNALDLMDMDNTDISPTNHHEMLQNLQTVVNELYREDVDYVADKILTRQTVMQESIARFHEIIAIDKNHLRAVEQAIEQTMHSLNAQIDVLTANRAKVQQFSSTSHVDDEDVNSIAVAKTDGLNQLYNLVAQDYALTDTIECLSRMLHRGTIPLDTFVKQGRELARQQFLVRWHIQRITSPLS
B2: Multivesicular body sorting factor 12 (Saccharomyces cerevisiae), P42939 (parent)
chain: B1 chain
partner: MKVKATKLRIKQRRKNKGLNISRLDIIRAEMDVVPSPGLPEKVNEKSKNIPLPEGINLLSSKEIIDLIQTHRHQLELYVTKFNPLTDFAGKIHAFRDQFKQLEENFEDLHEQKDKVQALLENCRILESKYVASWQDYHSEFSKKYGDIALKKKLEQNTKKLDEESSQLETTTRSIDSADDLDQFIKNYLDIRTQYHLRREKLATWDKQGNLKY
B3: Suppressor protein STP22 of temperature-sensitive alpha-factor receptor and arginine permease (Saccharomyces cerevisiae), P25604 (parent)
chain: B1 partner
partner: B2 partner
B4: Suppressor protein STP22 of temperature-sensitive alpha-factor receptor and arginine permease (Saccharomyces cerevisiae), P25604 (parent)
chain: B1 partner
partner: B1 chain

Variants of: B1
Conditions: with stp22_yeast STP22, P25604

Row | Variant | effect of a mutation on the interaction
1 | L47D;I57D | decreasing interaction

Variants of: B2
Conditions: with srn2_yeast SRN2, Q99176

Row | Variant | effect of a mutation on the interaction
2 | L47D;I57D | decreasing interaction

Variants of: B3
Conditions: with srn2_yeast SRN2, Q99176

Row | Variant | effect of a mutation on the interaction
3 | M254D | decreasing interaction

Variants of: B4
Conditions: with mvb12_yeast MVB12, P42939

Row | Variant | effect of a mutation on the interaction
4 | M254D | decreasing interaction

Source: IntAct's records for PubMed 17442384
